Settings: Homo sapiens, Thermal, fluorescence, whole UniProt chain shown

B1: Bone morphogenetic protein 2 wild type, P12643 (protein)
chain: MVAGTRCLLALLLPQVLLGGAAGLVPELGRRKFAAASSGRPSSQPSDEVLSEFELRLLSMFGLKQRPTPSRDAVVPPYMLDLYRRHSGQPGSPAPDHRLERAASRANTVRSFHHEESLEELPETSGKTTRRFFFNLSSIPTEEFITSAELQVFREQMQDALGNNSSFHHRINIYEIIKPATANSKFPVTRLLDTRLVNQNASRWESFDVTPAVMRWTAQGHANHGFVVEVAHLEEKQGVSKRHVRISRSLHQDEHSWSQIRPLLVTFGHDGKGHPLHKREKRQAKHKQRKRLKSSCKRHPLYVDFSDVGWNDWIVAPPGYHAFYCHGECPFPLADHLNSTNHAIVQTLVNSVNSKIPKACCVPTELSAISMLYLDENEKVVLKNYQDMVVEGCGCR
pH 2, Citrate
  Tm: 33 °C
pH 3, Citrate
  Tm: 41 °C
pH 4.5, Acetate
  Tm: 53 °C
pH 4.5, Malonate
  Tm: 63 °C
pH 5, Acetate
  Tm: 55 °C
pH 6, MES
  Tm: 62 °C
pH 7, MOPS
  Tm: 63 °C
pH 8.5, Tris
  Tm: 61 °C
pH 10, phosphate
  Tm: 59 °C
pH 10.5, CAPS
  Tm: 52 °C
pH 11, CAPS
  Tm: 32 °C

From FireProtDB (doi:10.1007/s11095-019-2705-5)
